Paper PMC10465003, “The AAA-ATPase Yta4/ATAD1 interacts with the mitochondrial divisome to inhibit mitochondrial fission” (PLOS Biology, 2023)
Each block holds one molecule with its values, some of them ahead of it.

B2: Dnm1 (enzyme, Schizosaccharomyces pombe, UniProt Q09748 1-781, looked up)
chain: MEQLIPLVNQLQDLVYNTIGSDFLDLPSIVVVGSQSCGKSSVLENIVGKDFLPRGTGIVTRRPLILQLINLKRKTKNNHDEESTSDNNSEETSAAGETGSLEGIEEDSDEIEDYAEFLHIPDTKFTDMNKVRAEIENETLRVAGANKGINKLPINLKIYSTRVLNLTLIDLPGLTKIPVGDQPTDIEAQTRSLIMEYISRPNSIILAVSPANFDIVNSEGLKLARSVDPKGKRTIGVLTKLDLMDQGTNAMDILSGRVYPLKLGFVATVNRSQSDIVSHKSMRDALQSERSFFEHHPAYRTIKDRCGTPYLAKTLSNLLVSHIRERLPDIKARLSTLISQTQQQLNNYGDFKLSDQSQRGIILLQAMNRFANTFIASIDGNSSNIPTKELSGGARLYSIFNNVFTTALNSIDPLQNLSTVDIRTAILNSTGSRATLFLSEMAFDILVKPQLNLLAAPCHQCVELVYEELMKICHYSGDSDISHFPKLQTALVETVSDLLRENLTPTYSFVESLIAIQSAYINTNHPDFLGVQGAMAVVLSRKEQNRLMLSQENDEPISSALDTVKPDGIELYSSDPDTSVKSITNKATNEITTLKSDDSAKMQPLDVLASKRYNNAFSTETAERKTFLSYVFGANNATRKAMSIDKSSSYPLNDSLSGGDTNHKNNHPLKMTDLSNEVETMALEDMSEREEVEVDLIKELITSYFNLTRKIIIDQVPKVIMHLLVNASKDAIQNRLVSKLYREDFFDTLLIEDENVKSEREKCERLLSVYNQANKIISTVF
notes: Dnm1, fission yeast dynamin-related GTPase; also called Dnm1(WT); recombinant Dnm1; source: E. coli Rosseta, purified (Ni-NTA, sumo protease, size-exclusion chromatography); not shown: His-sumo, N-terminal, cleaved

Legend:
[1] = biological target: Hcp1-Yta4(a.a. 35–355) (not stated | Schizosaccharomyces pombe); experiment: SEC + cross-linking; Superdex 200 Increase 10/300 GL in hypersaline buffer (500 mM NaCl, 500 mM KCl, 1 mM ATP, pH 7.5); EGS 4 mM, 300 ng/μL protein, 30 min at room temperature, SDS-PAGE with silver staining
[2] = biological target: Hcp1-Msp1(a.a. 36–362) (not stated | budding yeast (Saccharomyces cerevisiae)) (UniProt P28737); experiment: as above
Dnm1 [3] = biological target: B2
[4] = biological target: GST-Mdv1(319–651) (Schizosaccharomyces pombe) (UniProt Q9P7I3); experiment: pull-down; competitive binding: GST-Mdv1(a.a. 319–651) on glutathione resins incubated with Dnm1 or Dnm1(G380D), with or without His-Yta4(a.a 33–355); band intensities quantified
GST-Mdv1(a.a. 1–249) [5] = biological target: T1, GST-Mdv1(a.a. 1–249) (Schizosaccharomyces pombe, UniProt Q9P7I3 1-249); experiment: pull-down; competitive binding: GST-Mdv1(a.a. 1–249) on glutathione resins incubated with His-Fis1(a.a. 1–128), with or without His-Yta4(a.a 33–355) (Mdv1 to Yta4 1:1, 1:5, 1:10); settings: both partners purified
T1 construct: Mdv1, S. pombe, residues 1-249, the N-terminus; also called GST-Mdv1(NT); not shown: GST, N-terminal, kept
T1 sequence (looked up): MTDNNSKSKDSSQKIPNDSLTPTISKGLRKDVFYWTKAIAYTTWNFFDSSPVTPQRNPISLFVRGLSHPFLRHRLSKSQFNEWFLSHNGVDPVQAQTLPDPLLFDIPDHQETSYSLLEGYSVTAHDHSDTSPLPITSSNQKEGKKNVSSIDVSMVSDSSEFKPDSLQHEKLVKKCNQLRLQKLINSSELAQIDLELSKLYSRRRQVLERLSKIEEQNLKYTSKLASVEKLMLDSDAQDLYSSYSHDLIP

GST-Mdv1(a.a. 1–249) [6] = biological target: T2, GST-Mdv1(a.a. 1–249) (Schizosaccharomyces pombe (strain 972 / …, UniProt Q9P7I3)); experiment: GST pull-down
T2 chain: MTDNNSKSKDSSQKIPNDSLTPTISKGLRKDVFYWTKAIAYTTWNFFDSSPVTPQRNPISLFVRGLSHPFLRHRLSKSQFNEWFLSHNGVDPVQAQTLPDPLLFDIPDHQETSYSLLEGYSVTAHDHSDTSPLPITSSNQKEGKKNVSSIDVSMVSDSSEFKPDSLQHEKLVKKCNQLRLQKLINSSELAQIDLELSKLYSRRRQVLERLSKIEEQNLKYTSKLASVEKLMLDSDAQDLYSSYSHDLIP

[7] = substrate: Nc1nc2c(ncn2[C@@H]2O[C@H](COP(=O)(O)OP(=O)(O)OP(=O)(O)O)[C@@H](O)[C@H]2O)c(=O)[nH]1; experiment: malachite green phosphate release, Michaelis-Menten fit; type: biochemical, Schizosaccharomyces pombe; settings: pH 7.5, 37°C
[8] = biological target: the molecule itself; experiment: co-sedimentation; velocity sedimentation: 2 μM Dnm1 with 0, 5, 50 or 100 μM GMP-PCP, with or without 40 μM His-Yta4; 20 min at 37°C, 10,000 g 15 min at 4°C; supernatant and pellet on SDS-PAGE
Dnm1(G380D) = biological target: T3, Dnm1(G380D) (Schizosaccharomyces pombe, UniProt Q09748 1-781, G380D); experiment: pull-down; competitive binding: GST-Mdv1(a.a. 319–651) on glutathione resins incubated with Dnm1 or Dnm1(G380D), with or without His-Yta4(a.a 33–355); band intensities quantified; settings: both partners purified
T3 construct: Dnm1, fission yeast dynamin-related GTPase, with G380D (corresponds to G385D of S. cerevisiae Dnm1); Removal of His-sumo is stated for His-sumo-Dnm1 only; also called assembly-defective mutant of Dnm1; source: E. coli Rosseta, expressed as His-sumo-Dnm1(G380D), purified (Ni-NTA)
T3 sequence (looked up): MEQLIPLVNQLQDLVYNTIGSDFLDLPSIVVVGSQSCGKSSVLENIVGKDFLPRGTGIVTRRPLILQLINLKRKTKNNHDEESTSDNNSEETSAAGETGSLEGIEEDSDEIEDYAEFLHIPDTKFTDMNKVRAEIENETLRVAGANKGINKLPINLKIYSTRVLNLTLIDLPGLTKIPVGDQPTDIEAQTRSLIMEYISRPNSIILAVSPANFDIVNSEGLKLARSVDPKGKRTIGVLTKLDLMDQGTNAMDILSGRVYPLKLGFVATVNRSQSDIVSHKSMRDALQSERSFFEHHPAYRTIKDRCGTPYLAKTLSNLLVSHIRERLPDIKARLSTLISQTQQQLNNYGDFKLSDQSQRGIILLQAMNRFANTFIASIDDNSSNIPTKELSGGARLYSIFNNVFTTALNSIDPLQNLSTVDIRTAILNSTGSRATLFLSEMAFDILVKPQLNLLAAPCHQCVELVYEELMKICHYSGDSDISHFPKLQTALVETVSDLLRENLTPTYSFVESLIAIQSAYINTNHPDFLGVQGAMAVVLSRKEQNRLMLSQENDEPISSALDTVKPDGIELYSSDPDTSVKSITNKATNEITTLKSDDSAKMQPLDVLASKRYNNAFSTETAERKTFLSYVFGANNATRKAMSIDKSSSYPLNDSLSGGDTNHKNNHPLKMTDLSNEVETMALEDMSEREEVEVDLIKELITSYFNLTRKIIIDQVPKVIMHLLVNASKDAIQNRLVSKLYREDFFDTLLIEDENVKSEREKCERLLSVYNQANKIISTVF

Dnm1 [9] = biological target: B2; experiment: as above; settings: both partners purified

Molecule: Hcp1-Yta4(a.a. 35–355)
stoichiometry N [1]: 6

stoichiometry N [2]: 6
Molecule: Hcp1-Msp1(a.a. 36–362) (from UniProt P28737 36-362)

Km for GTP of the GTPase activity of 0.5 μM Dnm1 (colorimetric assay, 37°C) with 5 μM and 10 μM His-Yta4(∆TM), fold increase over Dnm1 alone; Vmax not significantly affected (Dnm1 [3]): 6 fold
Dnm1 left on GST-Mdv1(WD) with His-Yta4(∆TM), percent of the level without it [4]: 40%
Molecule: His-Yta4(a.a. 33–355) (domain or fragment)

binding result (GST-Mdv1(a.a. 1–249) [5]): binds
binding result (GST-Mdv1(a.a. 1–249) [6]): binds
B1: His-Fis1(1–128) (domain or fragment, Schizosaccharomyces pombe, UniProt Q9USZ8 1-128, looked up)
chain: MTEKHTLRLADPSAIDSIISVDEFLQIKEQYDAEQPLITLQTKFNLAWALVRSDSTQHVQQGLSLFCSIYKDSPERRLECLYYIALSHYKLKQYEESRRYLNMLLSKDPNSPEALKLKNRLYDAVTKE
notes: also called His-Fis1(∆TM); Fis1(∆TM); source: E. coli BL21, purified (Ni-NTA, size-exclusion chromatography); not shown: His tag, N-terminal, kept

Molecule: B2
Km ([7]; 0.5 μM Dnm1 alone, Mg2+): 193.80 µM
binding result [8]: binds

B3: Dnm1 (Schizosaccharomyces pombe 972h-; G380D) (protein)
chain: MEQLIPLVNQLQDLVYNTIGSDFLDLPSIVVVGSQSCGKSSVLENIVGKDFLPRGTGIVTRRPLILQLINLKRKTKNNHDEESTSDNNSEETSAAGETGSLEGIEEDSDEIEDYAEFLHIPDTKFTDMNKVRAEIENETLRVAGANKGINKLPINLKIYSTRVLNLTLIDLPGLTKIPVGDQPTDIEAQTRSLIMEYISRPNSIILAVSPANFDIVNSEGLKLARSVDPKGKRTIGVLTKLDLMDQGTNAMDILSGRVYPLKLGFVATVNRSQSDIVSHKSMRDALQSERSFFEHHPAYRTIKDRCGTPYLAKTLSNLLVSHIRERLPDIKARLSTLISQTQQQLNNYGDFKLSDQSQRGIILLQAMNRFANTFIASIDDNSSNIPTKELSGGARLYSIFNNVFTTALNSIDPLQNLSTVDIRTAILNSTGSRATLFLSEMAFDILVKPQLNLLAAPCHQCVELVYEELMKICHYSGDSDISHFPKLQTALVETVSDLLRENLTPTYSFVESLIAIQSAYINTNHPDFLGVQGAMAVVLSRKEQNRLMLSQENDEPISSALDTVKPDGIELYSSDPDTSVKSITNKATNEITTLKSDDSAKMQPLDVLASKRYNNAFSTETAERKTFLSYVFGANNATRKAMSIDKSSSYPLNDSLSGGDTNHKNNHPLKMTDLSNEVETMALEDMSEREEVEVDLIKELITSYFNLTRKIIIDQVPKVIMHLLVNASKDAIQNRLVSKLYREDFFDTLLIEDENVKSEREKCERLLSVYNQANKIISTVF
notes: Dnm1 expressed as His-sumo-Dnm1 in E. coli Rosetta; His-sumo tag removed by sumo protease; Ni-NTA and SEC; forms heterogeneous oligomers
Km ([7]; assembly-defective mutant, 0.5 μM, without Yta4, Mg2+): 85.00 µM

binding result (Dnm1(G380D)): binds
binding result (Dnm1 [9]): binds
B4: GST-Mdv1(319–651) (domain or fragment, Schizosaccharomyces pombe, UniProt Q9P7I3 319-651, looked up)
chain: YIVGNLVKQFQAHSEYITSLDFSHPFGTLATASTDKTVKVWDMAGVVYLGSLKGHSDYVSCLAIQDSFIATGSMDTTVRLWNLDNDVLHKDNPVEESLNSPPDQPVDNATNVLTSHTAPVTALALSSDDVLITGADDKTVRQWDIVTGRCIQTLDFVWAETHDTSTSQILVSDTYKQEPFIRALDCLDAAVASGTVDGLIRIWDLRIGLPVRSFIGHTAPISSLQFDSNHLYSGSYDNSVRIWDLRSGSPINIIPMEKKVNSLRLYQGRLAVASDEPNVRIFDTVSNRNWICSIPSHSDSIAAEPNSVPTSVQYKDRFLVDGKSDGSVSVFSA
notes: also called GST-Mdv1(WD); Mdv1(WD); source: E. coli BL21, purified (Glutathione Sepharose 4B resins); not shown: GST, N-terminal, kept
